± gives the standard error. For some assays here: Fewer inactive variants are shown than the library holds.
B1: glmS ribozyme (parent)
chain: AUAAAAGCGCCAGAACUACAGAAAUGUAGUUGACGAGGAGGAGGUUUAUCGAAUUUUCGGCGGAUGCCUCCAAA

Key:
Conditions in all cases: with glucosamine-6-phosphate
glucosamine-6-phosphate [1] = variants of: B1; experiment: kcat; higher = faster cleavage; RNA array
Procedure, shortened: (§1)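 kobs was derived by fitting per-tile medians to one- or two-exponential decays after normalising signals to baseline and to non-cleaving reference variants. Those signals came from barcoded ribozyme variants transcribed in situ by E. coli RNA polymerase on sequenced MiSeq chips, followed through a hybridised Cy3 probe at 37 °C and imaged over ~14 h. Glucosamine-6-phosphate (40 μM to 10 mM) in HEPES/KCl/Mg(OAc)2 buffer was flowed in. Weighted Michaelis–Menten fits across concentrations then gave kcat and KM.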

glucosamine-6-phosphate [2] = variants of: B1; experiment: KM; higher = weaker cofactor use; RNA array
Procedure, shortened: as §1

glucosamine-6-phosphate [3] = variants of: B1; experiment: self-cleavage kobs at 160 uM GlcN6P; higher = faster cleavage; RNA array
Procedure, shortened: as §1

glucosamine-6-phosphate [4] = variants of: B1; experiment: self-cleavage kobs at 640 uM GlcN6P; higher = faster cleavage; RNA array
Procedure, shortened: as §1

glucosamine-6-phosphate [5] = variants of: B1; experiment: self-cleavage kobs at 2500 uM GlcN6P; higher = faster cleavage; RNA array
Procedure, shortened: as §1

glucosamine-6-phosphate [6] = variants of: B1; experiment: self-cleavage kobs at 10000 uM GlcN6P; higher = faster cleavage; RNA array
Procedure, shortened: as §1

glucosamine-6-phosphate [7] = variants of: B1; experiment: self-cleavage kobs at 40 uM GlcN6P; higher = faster cleavage; RNA array
Procedure, shortened: as §1

| Variant | kcat (glucosamine-6-phosphate [1]) [s⁻¹] | KM (glucosamine-6-phosphate [2]) [µM] | self-cleavage kobs at 160 uM GlcN6P (glucosamine-6-phosphate [3]) [s⁻¹] | self-cleavage kobs at 640 uM GlcN6P (glucosamine-6-phosphate [4]) [s⁻¹] | self-cleavage kobs at 2500 uM GlcN6P (glucosamine-6-phosphate [5]) [s⁻¹] | self-cleavage kobs at 10000 uM GlcN6P (glucosamine-6-phosphate [6]) [s⁻¹] | self-cleavage kobs at 40 uM GlcN6P (glucosamine-6-phosphate [7]) [s⁻¹] |
| --- | --- | --- | --- | --- | --- | --- | --- |
| AUAAAAGCGCCAGAACUACAGAAAUGUAGUUGACGAUGAGGAGGUUUAUCGAAUUUUCGGCGGAUGCUUCCAAA [G37U C68U] | < 1e-05 |  |  |  |  |  |  |
| AUAAAAGCGCCAGAUCUACAGAAAUGUAGUUGACGAGGAGGAGGUUUAUCGAAUUUUCGGCGGAUGCCUGCAAA [A15U C70G] | 7.6e-05 ± 6.8e-06 | 175 ± 85 | 4.66e-05 ± 1.1e-05 | 5.16e-05 ± 7.6e-06 | 7.05e-05 ± 8.4e-06 | 8.19e-05 ± 9.8e-06 |  |
| AUAAAAGCGCCAGAACUACAGAAAUGUAGUUGACGAGGAGGAGGUUUUUCGAAGUUUCGGCGGAUGCCUCCAAA [A48U U54G] | 0.000434 ± 0.00011 |  | 6.29e-05 ± 1.9e-05 | 8.39e-05 ± 4.1e-05 | 0.000261 ± 0.0001 | 0.000397 ± 9.1e-05 |  |
| AUAAAAGCGCCAGAACUACAGAAAUGUAGUUGACGAGGAGGAGGUUUAUCGAAUGUUCGGCGGAUGCCCCCAAA [U55G U69C] | 0.000334 ± 4.6e-05 |  | 0.000229 ± 6.1e-05 | 0.000303 ± 6.9e-05 | 0.000289 ± 6.4e-05 | 0.000457 ± 8e-05 | 0.000197 ± 4.3e-05 |
| AUAAAAGCGCCAGAACUACAGAAAUGUACUUGACGAGGAGGAGGUUUAUCGAAUUUUCGGCGGAUGCGUCCAAA [G29C C68G] | 2.94e-05 ± 9e-06 |  |  | 5.49e-05 ± 1.9e-05 | 3.19e-05 ± 1.5e-05 |  |  |
| AUAAAAGCGCCAGAAGUACAGAAAUGUAGUUGACGAGGAGGAGGUUUAUCGAAUUUUGGGCGGAUGCCUCCAAA [C16G C58G] | 6.23e-05 ± 1.2e-05 |  |  |  | 7.72e-05 ± 1.5e-05 | 5.56e-05 ± 8.3e-06 | < 1e-05 |
| AUAAAAGCGCCAGAACUACAGAAAUGUAGUUAACGAGGAGGAGGUUUAUAGAAUUUUCGGCGGAUGCCUCCAAA [G32A C50A] | < 1e-05 |  |  |  |  |  |  |
| AUAAAAGCGCAAGAACUACAGAAAUGUAGUAGACGAGGAGGAGGUUUAUCGAAUUUUCGGCGGAUGCCUCCAAA [C11A U31A] | 0.00019 ± 2e-05 | 1480 ± 350 |  | 5.42e-05 ± 1e-05 | 0.000147 ± 2.8e-05 | 0.000158 ± 2.3e-05 |  |
| AUAAAAGCGCCAGAAUUACAGAAAUGUAGUUGACGAGGAGGAGGUUAAUCGAAUUUUCGGCGGAUGCCUCCAAA [C16U U47A] | 0.0299 ± 0.0051 | 3060 ± 660 |  | 0.00515 ± 0.00087 | 0.0118 ± 0.003 | 0.0259 ± 0.0068 | 0.0004 ± 7.1e-05 |
| AUAAAAGCGCCAGAACUACAGAAAUGUAGUUGACGAGGAGGAGGUUUAUCGAAUUUUCGGCGGAUUCGUCCAAA [G66U C68G] | 4.91e-05 ± 1.9e-05 |  | 3.35e-05 ± 1.3e-05 | 8.19e-05 ± 1.4e-05 | 6.89e-05 ± 1.1e-05 |  |  |
| AUAAAAGCGCCAGAACUACAGAAAUGUAGUUGACGAGGAGGAGGUUUAUCGUAUUUUCGGCGGAUGCCACCAAA [A52U U69A] | 5.73e-05 ± 1.5e-05 |  |  | 4.77e-05 ± 1.1e-05 | 7.38e-05 ± 1.2e-05 | 3.63e-05 ± 1.2e-05 |  |
| AUAAAAGCGCCAGAUCUACAGAAAUGUAGUUGACGAGGAGGAGGUUUAUCGAAUUUUCGGAGGAUGCCUCCAAA [A15U C61A] | < 1e-05 | 829 ± 70 |  |  |  |  | < 1e-05 |
| AUAAAAGCGCCAGGACUACAGAAAUGUAGUUGACGGGGAGGAGGUUUAUCGAAUUUUCGGCGGAUGCCUCCAAA [A14G A36G] | 4.89e-05 ± 6.4e-07 | 854 ± 82 |  |  | 3.69e-05 ± 1.2e-05 | 4.49e-05 ± 6.3e-06 |  |
| AUAAAAGCGCCAGCACUACAGAAAUGUAGUUGACGAGGAGGAGGUUGAUCGAAUUUUCGGCGGAUGCCUCCAAA [A14C U47G] | 0.00101 ± 0.00014 | 2500 ± 550 | 6.35e-05 ± 1.2e-05 | 0.000208 ± 3e-05 | 0.000422 ± 8.2e-05 | 0.000874 ± 0.00012 | 2.31e-05 ± 1.1e-05 |
| AUAAAAGCGCCAGCACUACAGAAAUGUAGUUGACGAGGAGGAGGUUUAUCGAAUUUCCGGCGGAUGCCUCCAAA [A14C U57C] | 5.66e-05 ± 5.7e-07 | 1390 ± 73 |  |  | 3.68e-05 ± 1.3e-05 | 4.96e-05 ± 7.4e-06 | < 1e-05 |
| AUAAAAGCGCCAGAACUACAGAAAUGUAGUUGACGAGGAGGAGGUUGAUCGAAUUUUCGGCGGAUGCCUCGAAA [U47G C71G] | 0.00028 ± 1.5e-05 | 685 ± 85 | 5.19e-05 ± 7.8e-06 | 0.000146 ± 1.7e-05 | 0.000205 ± 2.8e-05 | 0.000265 ± 2.4e-05 |  |
| AUAAAAGCGCCAGAACUACAGAAAUGUAAUUGACGAGGAGGAGGUUUAUCGAAUAUUCGGCGGAUGCCUCCAAA [G29A U55A] | 0.00461 ± 0.0011 | 1320 ± 440 | 0.000532 ± 9.2e-05 | 0.00123 ± 0.00015 | 0.00332 ± 0.00066 | 0.00456 ± 0.00065 | 0.000165 ± 2e-05 |

Source: the supplement of paper PMC7125110
